{"source": "patent US20030119733A1", "about": "“Compositions and methods for inhibiting hepatocyte invasion by malarial sporozoites” (New York University, priority 1992, published 2003)", "key": {"[1]": {"tested_on": "heparan sulfate proteoglycans (HSPG)", "experiment": "CS/proteoglycan co-immunoprecipitation", "assay_type": "binding, human", "details": "for co-immunoprecipitation of 35SO4-labeled sulfated molecules: lysates of rat liver, HepG2 cells, kidney, others 64 μg/ml; for total sulfate-labeled proteoglycans precipitated: trypsin-released proteoglycan, equivalent concentrations of Region II+", "method": "All extracts and supernatants were first precleared with normal rabbit serum and Staph A cells. Then 32 μg/ml of CSFZ(Cys) or 64 μg/ml of CS27IVC, Falc-2 or Falc-1 were added for 30 minutes, followed by 10.8 μg/ml mAb 2A10 for 30 minutes, and 1% Staph A cells (final concentrations). The suspensions were shaken for 1 to 5 hours at 4° C. The Staph A cells were washed 3 times with the lysis buffer A, 2 times with lysis buffer B (10 mM Tris-HCl, pH 7.2, containing 100 mM NaCl and 0.5% NP40), 1 time with 50 mM Tris-HCl, ph 7.2, and were processed in this buffer for electrophoresis under reducing and non-reducing conditions.\nExtracts of cells metabolically labeled with ^35SO4 were incubated for 30 minutes at 4° C. with 32 μg/ml of recombinant CSFZ(Cys) or 64 μg/ml Falc-1, and were immunoprecipitated with mAb 2A10 and Staph A cells. […] Immunoprecipitation with Falc-1 was negative. The SDS-PAGE patterns of the total lysate of HepG2 cells, and of the molecules co-immunoprecipitated with CSFZ(Cys) resembled the corresponding liver SDS-PAGE patterns. In kidney lysates, CSFZ(Cys) selectively immunoprecipitated a band of slightly lower molecular weight than the total kidney sulfated molecules.\nSub-confluent HepG2 cells were incubated with various concentrations of trypsin for 5 minutes at 4° C. […] Independently of the trypsin concentration, about 80% of the released HSPG was co-immunoprecipitated by 32 μg/ml CSFZ(Cys) and 10.8 μg/ml mAb 2A10. Under the same conditions, Falc-1 was negative.\n^35SO4-labeled trypsin-released proteoglycan (total supernatant) was precipitated by CSFZ(Cys) (32 μg/ml), Falc-2 (64 μg/ml), CS27IVC (64 μg/ml) and Falc-1 (64 μg/ml). The labeled molecules were incubated with CSFZ(Cys), CS27IVC, and Falc-2 at equivalent concentrations of Region II+, and co-immunoprecipitated with the mAb 2A10. CSFZ(Cys), lacking most of the repeat region, precipitated up to 86% of the total sulfate-labeled proteoglycans (see FIG. 14), while CS27IVC and Falc-2 precipitated only 18% and 6% of the counts, respectively. Falc-1, which lacks Region II+, was negative.\nSubconfluent sulfate-labeled HepG2 cells were incubated with 20 μg/ml trypsin for 5 minutes at 4° C., and the supernatants were loaded onto an anion exchange chromatography Pharmacia mono-Q column. These were eluted with a 0 to 2 M NaCl gradient in the presence of 7 M urea. […] Protein was not detectable in the labeled peaks. One ml fractions were collected and counted."}, "rat liver sections": {"tested_on": "rat liver sections", "experiment": "Staining of frozen tissue sections with recombinant CS polypeptides", "assay_type": "binding", "details": "revealed with MAb 2A10, fluorescence; CS27IVC 50-5 μg/ml, Falciparum-2 25 μg/ml, Falciparum-1 up to 250 μg/ml", "method": "The procedure was carried out essentially as described by Dukor P. et al., Proc. Natl. Acad. Sci. USA 67:991-997, 1970 and Imai Y. et al., J. Cell. Biol. 111:1225-1232, 1990. Rats were euthanized with CO2. Small pieces of the liver, spleen, heart, brain and lung were removed, snap frozen in liquid nitrogen, embedded in Tissue Tek O.C.T. (Miles, Inc., Naperville, Ill.), and cut into 5 μm sections. Sections were dried for 30 min., fixed for 10 min. in 4% paraformaldehyde, rinsed three times with phosphate-buffered saline (PBS), and either used immediately or stored at 4° C. in 1% BSA, 0.5% Tween, PBS (BSA/TPBS). After blocking with 100 mM glycine (pH 7.2) and with BSA/TPBS, the sections were sequentially incubated at 37° C. with recombinant proteins for 1 hr, 10 μg/ml MAb 2A10 for 45 min., and rat anti-mouse immunoglobulin conjugated to fluorescein isothiocyanate (Boehringer Mannheim, Indianapolis, Ind.) for 45 min. The slides were counterstained for 10 min. with 0.3% Evans blue, rinsed extensively in PBS, and finally observed under a fluorescence microscope. For peptide inhibition experiments, the sections were first incubated with the peptide at various concentrations in BSA/TPBS for 1 hour at 37° C., washed six times with BSA/TPBS, and then stained with 2.5 μg/ml CS recombinant protein as described above. In a few experiments, the tissues were fixed for 10 min. with methanol, acetone, or 4% paraformaldehyde containing 0.5% glutaraldehyde.\nFrozen sections of various rat organs were incubated with recombinant CS27IVC polypeptide. […] The staining closely followed the sinusoidal spaces of the hepatic lobules, indicating CS binding to the hepatocyte membrane. Other areas of the liver sections and sections of other organs (spleen, lung, heart or brain) were not stained. Control sections (incubated with CS27IVC in the absence of antibody or vice versa) were not stained either.\nTo define the region of the CS that mediates the perisinusoidal staining various other recombinant constructs were also used in the frozen section assay."}, "[2]": {"experiment": "Solid phase binding assay, cholesterol-3-sulfate", "details": "steroid dried into microtiter wells", "method": "Solid phase binding assays: Thirty μl of lipids or steroids dissolved in methanol (20-250 μg/ml) were dried into wells of microassay plates (Cat.# 3911—Falcon—Oxnard, Calif.). The plates were then blocked with 1% BSA/PBS pH 7.4 (BSA/PBS) for 30 minutes. Wells were incubated with recombinant protein (or with parasite extract) in PBS/BSA for 1 hour, washed 3 times with BSA/PBS, incubated for 1 hour with monoclonal antibodies 2F2 or 2A10 in BSA/PBS, washed 3 times, and then incubated with (10^5 cpm/well) ^125I protein A (Amersham Corp., Arlington Hts., Ill.). In the case of the P. berghei CS protein, wells were incubated with ^125I labelled mAb 3D11. Wells were washed again and the bound radioactive protein was counted in an LKB gamma-counter (model #1260, Pharmacia, Inc., Gaithersburg, Md.). For inhibition assays, the recombinant proteins were mixed with dilutions of the various polymers in BSA/PBS, the mixture was loaded into the wells of the microtiter plates, and the binding assay performed as above. See also, Roberts, et al. J. Biol. Chem. 260:9405-9411, 1985.\n1.4 nmol of sulfatide (open squares), cholesterol-3-sulfate (closed triangles), galactocerebroside I (closed circles), galactocerebroside II (open circles) and cholesterol (open triangles) were evaporated into microtiter wells and then incubated with serial dilutions of Vivax-2. […]"}}}
{"molecule": "Falciparum-2: fragment of P. falciparum CS protein with repeats and Region II+ (residues 43-391) (protein) AGTNLYNELEMNYYGKQENWYSLKKNSRSLGENDDGNNNNGDNGREGKDEDKRDGNNEDNEKLRKPKHKKLKQPGDGNPDPNANPNVDPNANPNVDPNANPNVDPNANPNANPNANPNANPNANPNANPNANPNANPNANPNANPNANPNANPNANPNANPNANPNVDPNANPNANPNANPNANPNANPNANPNANPNANPNANPNANPNANPNANPNANPNANPNANPNANPNANPNANPNANPNKNNQGNGQGHNMPNDPNRNVDENANANNAVKNNNNEEPSDKHIEQYLKKIKNSISTEWSPCSVTCGNGIQVRIKPGSANKPKDELDYENDIEKKICKMEKCSS", "values": [{"measurement": "co-immunoprecipitation of 35SO4-labeled sulfated molecules", "setting": "[1]; CSFZ(Cys) 32 μg/ml", "result": "less efficient"}, {"measurement": "total sulfate-labeled proteoglycans precipitated", "setting": "[1]", "result": 6, "unit": "%"}, {"measurement": "binding (staining) to frozen liver sections", "setting": "rat liver sections", "result": "bound to the liver sections"}, {"measurement": "binding to cholesterol-3-sulfate", "setting": "[2]", "result": "bind"}]}
{"molecule": "Falciparum-1: Same as Falciparum-2 minus most of Region II+ (P. falciparum residues 43-348) (protein) AGTNLYNELEMNYYGKQENWYSLKKNSRSLGENDDGNNNNGDNGREGKDEDKRDGNNEDNEKLRKPKHKKLKQPGDGNPDPNANPNVDPNANPNVDPNANPNVDPNANPNANPNANPNANPNANPNANPNANPNANPNANPNANPNANPNANPNANPNANPNANPNVDPNANPNANPNANPNANPNANPNANPNANPNANPNANPNANPNANPNANPNANPNANPNANPNANPNANPNANPNANPNKNNQGNGQGHNMPNDPNRNVDENANANNAVKNNNNEEPSDKHIEQYLKKIKNSISTEWSP", "values": [{"measurement": "co-immunoprecipitation of 35SO4-labeled sulfated molecules", "setting": "[1]; CSFZ(Cys) 32 μg/ml, listed as Falc-1", "result": "Negative results"}, {"measurement": "released HSPG co-immunoprecipitated", "setting": "[1]; trypsin-released from HepG2 cells, CSFZ(Cys) 32 μg/ml, mAb 2A10 10.8 μg/ml", "result": "negative"}, {"measurement": "total sulfate-labeled proteoglycans precipitated", "setting": "[1]", "result": "negative"}, {"measurement": "binding (staining) to frozen liver sections", "setting": "rat liver sections", "result": "did not bind"}, {"measurement": "binding to cholesterol-3-sulfate", "setting": "[2]", "result": "did not bind"}]}
